From CN1930187A

Columns and labels:
[1] = target: EGFRvIII-rabbit Fc fusion protein (EGFRvIII-RbFc) (human; rabbit) (UniProt P00533); experiment: ELISA, transfection supernatant titrated on EGFRvIII-Rab Ig Fc coat
[2] = target: T1, Pep-3, NH2-…-OH (MW 1590 Da) (human); experiment: SPR (Biacore 2000), mAb immobilised, pep-3 injected
T1 sequence (peptide): LEEKKGNYVVTDHG

[3] = target: T1, Pep-3, NH2-…-OH (MW 1590 Da) (human); experiment: SPR (Biacore 2000), mAb immobilised, pep-3 injected, 1:1 model

B1: SC-EGFRvIII-XG2-170 (antibody, human IgG1, V domains shown)
VH: QVQLQQSGPGLVKPSQTLSLTCAISGDSVSSNNAAWNWIRQSPARGLEWLGRTYYRSKWYNDYVVSVKSRITINPDTSKNQFSLQLNSVTPEDTAVYYCVRATAFDYWGQGTLVTVSS
VL: AIVLTQTPLSSPVTLGQPASISCRSSQSLVHRDGNTYLSWLQQRPGQPPRLLIYKISNRFSGVPDRFSGSGAGTDFTLKISRVEPDDVGVYYCMHTTQLPWTFGQGTKVEIK
B1 was tested, and the titre, antigen binding (抗原结合) (titre (1:x dilution)) [1] was over 64.

B2: SC-EGFRvIII-XG2-150 (antibody, human IgG1, V domains shown)
VH: QVQLQQSGPGLVKPSQTLSLTCAISGDSVSSYSSAWNWIRQSPSRGLEWLGRAYHRSRWYYEYAVSVKSRINITPDTSKNQFSLQLNSVTPEDTAVYYCARGSRFDYWGQGTLVTVSS
VL: DIVMTQTPLSSPVTLGQPASISCRSSQSLVHRDGNTYLSWLQQRPGQPPRLLIYKISNRFSGVPDRFSGSGAGTDFTLKISRVEAEDVGIYFCMHTTQFPWTFGQGTRVEIK
For B2, the titre, antigen binding (抗原结合) (titre (1:x dilution)) [1] was over 64.

B3: AB-EGFRvIII-XG1-095 (antibody, human IgG1, V domains shown)
VH: QVQLQESGPFLVKPSQTLSLTCTVSGGSISSGGYYWSWIRQHPGKGLEWIGFIYYRGNTYYNPSLKSRVTISVDTSKNQFSLKLSSVTAADTAVYYCARDGYCSRTGCYGGWFDPWGQGTLVTVSP
VL: DIVMTQTPLSSPVTLGQPASISCRSSQSLIHTDGNIYLSWLQQRPGQPPRLLIYKISNRFSGVPDRFSGSGAGTDFTLKISRVEAEDVGVYYCMQGTQFPITFGQGTRLEIK
With B3 the Kd [2] was 66 nM, the koff [2] was 0.0099 s⁻¹ and the kon [2] was 149000 M⁻¹ s⁻¹. The koff [3] was 0.00993 s⁻¹ and the kon [3] was 149000 M⁻¹ s⁻¹.

B4: SC-EGFRvIII-XG1-123/124 (antibody, human IgG1, V domains shown)
VH: QVQLVESGGGVVQPGRSLRLSCAASGFTLSSYGMHWVRQAPGKGLEWVAVMSYDGSKEDYADSVKGRFTISRDNSENTLYLQMNSLRAEDTAVYYCVSEGYCSSRSCYKYYYYGMDVWGQGTTVTVSS
VL: DIVMTQSPLSLPVTPGEPASISCRSSQSLLYRNGNNYLDWYLQKPGQSPQLLIYLGSNRASGVPDRFSGSGSGTDFTLNISRVEAEDVGHYYCMQALQTPRTFGQGTKVEIK
For B4, the titre, antigen binding (抗原结合) (titre (1:x dilution)) [1] was over 64.

B5: SC-EGFRvIII-XG1-318 (antibody, human IgG1, V domains shown)
VH: QVQLVESGGGVVQPGRSLRLSCVASGFTLSSYGMHWVRQAPGKGLEWVAVTSYDGSKKDYADSVKGRFTISRDNSKNTLYLQMNSLRAEDTAVYYCVSEGYCDSSSCYKYYYYGMDVWGQGTTVTVSS
VL: DIVMTQSPLSLPVTPGEPASISCRSSQSLLYRNGNNYLDWYLQRPGQSPQLLIYLGSNRASGVPDRFSGSGSGTDFTLKISRVEAEDVGVYYCMQALQTPRTFGQGTKVEIK
With B5 the titre, antigen binding (抗原结合) (titre (1:x dilution)) [1] was 64.

B6: SC-EGFRvIII-XG1-333 (antibody, human IgG1, V domains shown)
VH: QVQLVESGGGVVQPGRSLRLSCVASGFTLSSYGMHWVRQALGKGLEWVAVTSYDGSKKDYADSVKGRFTISRDNSKNTLYLQMNSLRAEDTAVYYCVSEGYCDSTSCYKYYYYGMDVWGQGTTVTVSS
VL: DIVMTQSPLSLPVTPGEPASISCRSSQSLLYRNGNNYLDWYLQRPGQSPQLLIYLGSNRASGVPDRFSGSGSGTDFTLKISRVEAEDVGVYYCMQALQTPRTFGQGTKVEIK
With B6 the titre, antigen binding (抗原结合) (titre (1:x dilution)) [1] was over 64.

B7: SC-EGFRvIII-XG1-342 (antibody, human IgG1, V domains shown)
VH: QVQLVESGGGVVQPGRSLRLSCVASGFTLSSYGMHWVRQAPGKGLEWVAVTSYDGSKKDYADSVKGRFTISRDNSKNTLYLQMNSLRAEDTAVYYCVSEGYCDSTSCYKYYYYGMDVWGQGTTVTVSS
VL: DIVMTQSPLSLPVTPGEPASISCRSSQSLLYRNGNNYLDWYLQRPGQSPQLLIYLGSNRASGVPDRFSGSGSGTDFTLKISRVEAEDVGVYYCMQALQTPRTFGQGTKVEIK
B7 gave a titre, antigen binding (抗原结合) (titre (1:x dilution)) [1] of over 64.

B8: SC-EGFRvIII-XG1-211 (antibody, human IgG1, V domains shown)
VH: QVQLVESGGGVVQPGRSLRLSCVASGFTLSSYGMHWVRQAPGKGLEWVAVTSYDGSKKDYADSAKGRFTISRDNSKNTLYLQMNSLRAEDTAVYYCVSEGYCSSSSCYKYYYYGMDVWGQGTTVTVSS
VL: DIVMTQSPLSLPVTPGEPASISCRSSQSLLYRNGNNYLDWYLQRPGQSPQLLIYLGSNRASGVPDRFSGSGSGTDFTLKISRVEAEDVGVYYCMQALQTPRTFGQGTKVEIK
For B8, the titre, antigen binding (抗原结合) (titre (1:x dilution)) [1] was over 64.

B9: SC-EGFRvIII-XG1-250 (antibody, human IgG1, V domains shown)
VH: EGQLLESGGGWVQPGESLRLSCAASGFTFSSYAMSWVRQAPGKGLEWVSAISGSGGSTNYADSVKGRFTISRDNSKNTLYLQVNSLRVEDTAVYYCAGSSGWSEYWGQGTLVTVSS
VL: DIQMTQSPSSLSASVGDSVTITCRTSQGIRKNLGWYQQKPGKAPKRLIYAASSLQSGVPSRFSGSGSGTEFTLTISRLQPEDFATYYCLQHHSYPLTFGGGTRVEIR
Work on B9 yielded a titre, antigen binding (抗原结合) (titre (1:x dilution)) [1] of over 64.

B10: SC-EGFRvIII-XG1-139 (antibody, human IgG1, V domains shown)
VH: EVQVLESGGGLVQPGGSLRLSCAASGFTFSSYAMSWVRQAPGKGLEWVSAISGSGGSTNYADSVKGRFTISRDNSKNTLYLQMNSLRAEDTAVYYCAGSSGWSEYWGQGTLVTVSS
VL: DIQMTQSPSSLSASVGDRVTITCRASQGIRNNLAWYQQKPGKAPKRLIYAASNLQSGVPSRFTGSGSGTEFTLIVSSLQPEDFATYYCLQHHSYPLTSGGGTKVEIK
Binder B10 has a Kd [2] of 290 nM, a koff [2] of 0.00298 s⁻¹ and a kon [2] of 10300 M⁻¹ s⁻¹. It also gave a koff [3] of 0.00298 s⁻¹, a kon [3] of 10300 M⁻¹ s⁻¹ and a titre, antigen binding (抗原结合) (titre (1:x dilution)) [1] of over 64.
